The nanobody polyreactivity screen of Harvey et al. (2022)

Test: yeast display, Sf9 membrane polyspecificity reagent, FACS + sequencing; frameworks hold sequencing errors
In short: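 Polyreactivity labels are assigned by the sorting gate from which each nanobody was recovered. The gates were low and high (top ~1%), set on anti-HA fluorescence for expression and streptavidin fluorescence for reagent binding. Before sorting, galactose-induced (36–48 hours) yeast display cells were stained for 1 hour at 4 °C with 10% biotinylated, detergent-solubilized Sf9 membrane reagent.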

QVQLVESGGGLVQAGGSLRLSCAASGSIFDPYAMGGYRQAPGKERELVAAISFITGGTYYADSVMGRFTISRDNAMNTVYLQMNSLKPEDTAVYYCNADYFYKGGWVWRDEYWGQGTQVTVSS
polyreactivity (PSR sort gate): high polyreactivity

QVQLVESGGGLVQAGGSLRLSCAASGSTLWRSAMGWYRQAPGKERELVAGISRGGGSTYYADSVKGRFTISRDNAKNTVYLQMHSLKPEDTAVYYCATPVYQVRGAFDYWGQGTQVTVSS
polyreactivity (PSR sort gate): low polyreactivity

QVQLVESGGGLVKAGGSLRLSCAASGRTFFRNAMGWYRQAPGKEREFVAAINSSGGSTYYADSVKGRFTISRDNAKNTVYFQMNSLKPEDTAVYYCARYHYPFYKPYGFGYWGQGTQVTVSS
polyreactivity (PSR sort gate): high polyreactivity

QVQLVESGGGLVQAGGSLRLSCAASGRTFYVNAMGGYRQAPGKERELVARITSGGSTYYADSVKGRFTISRDNAKNTVYLQMNSLKPEDTAVYYCAKKYIGYQEWIHSTRRYDYWGQGTQVTGSS
polyreactivity (PSR sort gate): low polyreactivity

QVQLVESGGGLVQAGGSLRLSCAASGSTFFYYAMGWYRQAPGKERELVAAISGNGGSTYYADSVKGRFTISRDNAKNTVYLQMNSLKPEDPAVYYCAAVSSWDEYYYWGQGTQVTVSS
polyreactivity (PSR sort gate): high polyreactivity

KVQLVESGGGLVQAGGSLRFSCAPSGSIFSGNTMGWYRQAPGKEREMVAAITRSGDTTYYADSVKGRFTISRDYAKNTVYLQMNSLKPEDTAFYYCAAALPRYRSRAIRVEFWGQGSQVTVSS
polyreactivity (PSR sort gate): high polyreactivity

QVQLVESGGRLVQAGGSLRLSCAASGYTFPYANGWYRQAPGKERELVAGITSSGGSTYYADSVKGRFTISRDNAKNTVYLQMNSVKPEDTAVYYCNADVFVWLYPHYLIFDYWGQGTQVTVSS
polyreactivity (PSR sort gate): low polyreactivity

QVQLVESGGGLVQAVGRLRLSCAASGRILPLYAMGWYRQAPGKEREMVADITGSDGSTYYADSVKGRFSISRDNAKNTVYLQMNSLKPEDTAVYYCATDAIGRTPSDPWDYYYWGQGTQVTVSS
polyreactivity (PSR sort gate): low polyreactivity

QVQLVESGGGLVQAGGSLRLSCAASGRIFSRYAMGWYRQAPVKERELVATITRSGARTYYADSVKGRFTISRDNAKNTVYLQMNSLKPEDTAVYYCATPYKYVTGEDYWGQGTQVTVSS
polyreactivity (PSR sort gate): high polyreactivity

QDQLVESGGGLVPAAGSLRLSCASSGFSFRRNAMGCYRQAPGKEREFVAGITSGGSTYYADSVKGRFTISRDNAKNTVYLLLNSLKPEDTAVYFCAATYRRRYGYWGQGTQVTVSS
polyreactivity (PSR sort gate): high polyreactivity

QVQLVESGGGLVQAGGSLRLSCAASGRTFDGYAMGWYRQAPGKERELVAAIDYDGVSTYYADSVKGRFTISRDNAKNTVYLEMNSLKPEDTAVYYCAVDATDDWWLDYWGQGTQVTVSS
polyreactivity (PSR sort gate): low polyreactivity

QVQLVESGGGLVQAGGSLRLSCAASGFTFRVYAMGWYRQAPGKERELVAAISKSGGSTYYADSVKGRFTISRDNAKNTVYLQMNSLKPEDTAVYYCAKVSQVRGFYYWGQGTQVTVSS
polyreactivity (PSR sort gate): high polyreactivity

QDQLVESGGGLVQAGGSLRLSCAASGTTFYRYAMGWYRQAPGKERELVAAISSSGGYTYYADSVKGRFTISRDIAKNTVYLQMNSLKPEDTAVYYCNAAYRVRRFDYWGQGTQVTVSS
polyreactivity (PSR sort gate): low polyreactivity

QVQLVESGGGLVQAGGSLRLSCAASGRTFYVKVMGWYRQEPGKERELVAVISRSDGSTTYADSVKGRFTISRDNAKNTVYLQMNSLKPEDTAVYYCNTDLPLGSGVLPDWELFDYWGQGTQVTVSS
polyreactivity (PSR sort gate): low polyreactivity

QVQLVESGGGLDQAGGSLRLSWAASGGIFIYNAMGWYRQPPGKEREVVAAINISGGNTYYADSVKGRFTISRDNAKNTVYLQMNSLKPEDTAVYYCAARYASSWWIRYYFWGQGTQVTVSS
polyreactivity (PSR sort gate): high polyreactivity

QVQLVESGGGLVQAGGSLRLSCAASGFTFRNNAMGWYRQAPGKERELVAAISYSGGSTYYADSVKGRFTISRDNAKNTVYLQMNSLKPEDTAVYYCNPRRWSYLEYDYWGQGTQVTVSS
polyreactivity (PSR sort gate): low polyreactivity

QVQLEESGGGLVQAGGSLRLSCAASGSTFTPNAMGWYRQAPGKEREFVAGIDWNDGSTYYADSVKGRFTISRDNAKNTVYLQMNSLQPEDTEVYYCNAQWVSWWSLYDYWGQGTQVTVSS
polyreactivity (PSR sort gate): high polyreactivity

QVQLVESGGGLVQAGGSLRLSCAASGRTFPGNAMGWYRQAPGKERELVATISSGGTTYYADSVKGRFTISRDNAKNTVYLQMNSLKPEDTAVYYCATDTYHHKADYEYWGQGTQVSVSS
polyreactivity (PSR sort gate): low polyreactivity

QVQLVESGGGLVQAGGSLRLSCAASGSIFYRNVMGWYRQAPGKERELVAAISQRGGSTYYADSVKGRFTISRDNAKNTVYLQMNSLKPEDTAVYYCIAASRGAGTSIWSWYDHWGQGTQVTVSS
polyreactivity (PSR sort gate): low polyreactivity

QVQLVESGGGLVQAGGSLRLSCASSGLIFYDNMGWYRQAPGKETELVAAISSSGGSTSYADSVKGRFTISRDNAKNTVYLQMNSLKPEDTAVYYCAADSYPAYLGFFGFDYWGQGTQVTVSS
polyreactivity (PSR sort gate): low polyreactivity

QFQLVESGGGLVQAGGSLRLSCAASGSTIPRNAMGWYRQAPGKERELVAVITGSGGSTYYADSVKGRFTISRDNAKNTVYLQMNSLKPEDTAVYYCAAKYRFYGFDYWGQGTQLTVSS
polyreactivity (PSR sort gate): high polyreactivity

QDQLVESGGGLVQAGGSLRLSCAASGRIFVHNAMGWYRQAPGKERELVAAIYQNGGRTYYADSVKGRFTISRDNAMNTVYLQMNSLKPEDTAVYYCAAGQARAGLIGGYWGQGTQVTVSS
polyreactivity (PSR sort gate): high polyreactivity

QVQLVESGGGLVQAGGSLRLSCAASGSIFDYYAMGWYRQAPGKETELVAAITYGGGSTYYADSVKGRFTISRDNAKNTVYLQMNSLKPEDTAVYYCNALGENYQFNYWGQGTQVTVSS
polyreactivity (PSR sort gate): low polyreactivity

QVQLVESGGGLVQAGGSLRLSCAASGFTFFYYVMGWYRQAPGKERELVAAISSGGSTYYADSVKGRFTISRDNAKNTVYLQMNSLKPEDTAVYYCNAVYRSTWWGYDYWGQGTQVTVSS
polyreactivity (PSR sort gate): high polyreactivity

QDQLVESGGGLVQAGGSLRLSGDASGSTFSKYVMGWYRQAPGKERELVAAISGGDRTYYADSVKGRFTISRDNAKNTVYLQMNSLKPEDTAVYFCAAEVLKTRWSYDYWGQGTQVTVSS
polyreactivity (PSR sort gate): high polyreactivity

QVQLVESAGGLVQAGGSLRLSCAASGRISAYAMGWYRQAPGKERELVAAISSRGGRTYYADSVKGRFTISRDNAKNTVYLQMNSLKPDDTAVYYCNALRTWEFDHWGQGTQVTVSS
polyreactivity (PSR sort gate): high polyreactivity

QVQLVESVGGLVQAGGSLRLSCAASGLIFHRYAMGWYRQAPGKERELVAAISSSGGITYYADSVKGRFTISRDNAKNTVYLQMNSLKPVDTAVYYCPADTGKGSPFSAGLGRAGDYWGHGTQVTVSS
polyreactivity (PSR sort gate): low polyreactivity

QVQLVESGGGLVQAGGSLRLSCAASGRIFAANVMGWYRQAPWKERELVAAISWNGGSTYYADSVKGRFTISRDNAKNTVYLQMNSLKPEDTAVYYCAVRGSYRGWYDYWGQGTQVTVSS
polyreactivity (PSR sort gate): high polyreactivity

HAQLQDSGGGLVQAGGSLRLSCAASGNISSEYYMGWGRQAPGSGREFVAAIDYGGTTNYADNVKGRFTISRDNAKNTVYLQMNSLRPEDTAVYYCAASCDTIGLFAYWGQGTQVTVIS
polyreactivity (PSR sort gate): high polyreactivity

QVQLVESGGLLVQAGGSLRLSCAASGFNFYNYAMGWYRQAPGKERELVAAISKRGGRTYYADSVKGRFTISRDNAKITVYLQMNRLKPVDTAVYYCNTDAVRPYHVAWYDYWGQGTQVTVSS
polyreactivity (PSR sort gate): high polyreactivity

QVQLVESGGGLVQAGGSLRLSCAASGRIFRYYSMGWYRQAPGKERELVAAISGGGSTYYADSVKGRFTISRDNAKNTVYLQMNSLKPEDTAVYYCAALRSSQSKGDYWGQGTQVTVSS
polyreactivity (PSR sort gate): high polyreactivity

QVQLVESGAGLVQAGGSLRLICAASGRIFDRYTMGRYRQAPGKERELVAAITQRGTSTYYADSVKGRFTLSRDTAKNTVYLQMNSLKPEDTAGYYCAATALFSGLNKRYYWGQGTQLTVSS
polyreactivity (PSR sort gate): high polyreactivity

QVQLQESGGSLVQAGGILRLSCAACGNIFPSAVMGWYRQALGKEREFVATINSGSYTYYADSVKVRFTISRDNAKNTVYLQMNSLKLDDSAVYYCAAYFKLPAWHTYWGQGTQVTVSS
polyreactivity (PSR sort gate): low polyreactivity

QVQHVESVGGLVQAGGSLRLSCAASGRIFNYNSMGWYRLAPVKERELVAVITSVDSTNYADSVKGRFTISRDNAKNTVYLQMNSLKQEDTAVYYCASEYYSIRYGPHSIEVYCMEYWGQGTQVTVSS
polyreactivity (PSR sort gate): low polyreactivity

QGQRVESGGGLVQAGGSLRLSCAASGFIFSYYTMGWYRQAPGKERELVAAISSTGRTNYADSVKGRFTISRDNAKHTVYLQMNSLKPDDTAFYYCNAAKLSYGPWRGYYKLDVWGQGTQVTVSS
polyreactivity (PSR sort gate): high polyreactivity

QVQLVESGGGLVQAGGSLRLSCAASGGTFVRYVMGWYRPAPGKERELVAAISGSGGSTYYADTVKGRFTISRDNAKNTVYLQMNSLKPEASAVYYCASVYYWSKFYYWGQGTQVTVSS
polyreactivity (PSR sort gate): high polyreactivity

QVQLVESGGGLVQAGGSLRLSCAASGSTFHGYALGWYRQAPGKERELVAAISWSGGRTYYADSVKGRFTISRDNAKNTVYLQMNSLKPEDTAVYYCNKDGYYRWQSTYLANRYDYWGQGTQVTVSS
polyreactivity (PSR sort gate): high polyreactivity

QVQLVESGGGLVQAGGSLRLSCAASGRIFPHNAMGWYRQAPGKERELVAAITKSGDDTYYADSVKGRFTISRDNAKNTVYLQMNSLKPEDTAVYYCAAYLSWYDYWGQGTQVTVSS
polyreactivity (PSR sort gate): low polyreactivity

QVKLVESGGGLVQAGGSLRLSFAASGYTFGSNAMGWYRQAPGKERELVADIDCSSGNTYYADSVKGRFTISRDNAKNTVYLQMNSLKPEDTAVYYCAAELHIYYSWYWYDYWGQGTQVTVSS
polyreactivity (PSR sort gate): high polyreactivity

QVQLVESGGGLVQAGGSLGLSCAASGRTFYRNAMGWYRQAPGIERELVAPITNGGRTYYADSVKGRFTISRDNAKNTVNLQMNSLKPEDTAVYYCNALDAKLSEYEYWGQGTEVTVSS
polyreactivity (PSR sort gate): low polyreactivity

QVQLVESGGGLVQAGGSLRLSCAASGSIFSAYAMGWYRQAPGKERELVAAISSRGGSTYYADSVKGRFTISRDNAKNTVYLQMNSLKPEDTAVDYCAARVRHSAYDYWGQGTQVTVSS
polyreactivity (PSR sort gate): high polyreactivity

QVQLVESGGGLVQAGGSLRLSCAASGSNFAKYAMGWYRQAPGKERELVAAISWRGGSTYYADSVKGRFTISRDNAKNTVYLQMNSLKPEDTAVYYCNKVGTWQGPYDYWGQGTQVTVSS
polyreactivity (PSR sort gate): high polyreactivity

QVQLVESGGGLVQAGGSLRLSCAASGRIFLGYAKGWYRQAPGKERELVAAINRSGSSTYYADSVKGRFTISRDIAKNTVYLQMNSLKPEHSAVYYCNARSGNRYGPRYDYWVQGTQVTVSS
polyreactivity (PSR sort gate): high polyreactivity
